# Reference: patent US20100261660A1
# Target: hB7-1-FLAG (human) (UniProt P33681)
# Assay: flow cytometry, seven transient transfections of 293 cells, mean±SEM; used by the filing as a measure of expression
# Chain of hB7-1-FLAG (human) (P33681 other isoform, or with tags, fused parts or gaps): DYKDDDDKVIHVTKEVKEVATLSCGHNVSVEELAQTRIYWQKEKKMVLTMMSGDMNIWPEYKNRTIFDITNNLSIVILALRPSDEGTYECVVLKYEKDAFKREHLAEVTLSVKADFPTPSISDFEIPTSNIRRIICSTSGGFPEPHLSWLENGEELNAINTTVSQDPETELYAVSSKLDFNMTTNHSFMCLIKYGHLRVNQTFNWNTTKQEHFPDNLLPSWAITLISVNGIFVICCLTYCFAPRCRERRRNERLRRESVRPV
substance,measurement,value
FLAG-specific mAb M2 (antibody),mean fluorescence intensity (MFI),55
